Measurements published in patent publication US20140223606, “COMPOSITIONS AND METHODS COMPRISING SEQUENCES HAVING MEGANUCLEASE ACTIVITY” (PIONEER HI BRED INTERNATIONAL INC, published 2014).

Legend:
Details in all cases: tags: NLS, 6xHis
[1] = biological target: T1, ZM6.3(3) (artificial); experiment: cell_activity; yeast 37 C; 28 C: 0
T1 chain: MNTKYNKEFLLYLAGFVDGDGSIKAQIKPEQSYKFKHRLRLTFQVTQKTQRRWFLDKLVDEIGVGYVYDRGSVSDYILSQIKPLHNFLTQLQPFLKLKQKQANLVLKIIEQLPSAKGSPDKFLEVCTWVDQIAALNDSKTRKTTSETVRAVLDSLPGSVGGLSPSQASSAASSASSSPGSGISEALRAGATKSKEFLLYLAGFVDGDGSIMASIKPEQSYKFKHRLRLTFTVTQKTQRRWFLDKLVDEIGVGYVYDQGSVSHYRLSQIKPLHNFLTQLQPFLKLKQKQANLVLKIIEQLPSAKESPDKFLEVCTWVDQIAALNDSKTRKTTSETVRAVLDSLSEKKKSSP
Experimental: (§1) A 3 mL culture of selective media (MP Biomedical) was inoculated with a single colony of the yeast screening strain and grown at 30° C. overnight. On the following day, a 50 ml YPD culture (MP Biomedical) was started with 2 ml of the overnight culture and grown at 30° C. overnight. On the following day, the cells were harvested by centrifugation at 4000 rpm. The cells were resuspended in 100 ml ice cold water and centrifuged again. The cells were then washed in 1.2 M sorbitol, followed by treatment with 2 ml of 10 mM Tris pH 8.0, 1 mM EDTA, 100 mM Lithium acetate, 10 mM DTT, 0.6M sorbitol for 30 minutes at 30° C. with shaking. The cells were recovered by centrifugation, washed in 40 ml 1.2M sorbitol and finally resuspended in 250 microliters of 1.2M sorbitol. 50 microliter aliquots were transferred to test tubes on ice. Up to 5 microliters of DNA (100-500 nanograms) were added. The suspension was transferred to a 0.2 cm electroporation cuvette, on ice. Electroporation was performed with a pulse charge at 1.5 kV, 200 ohms, 25 microF (pulse time of 5 milliseconds). 1 mL YPD media (MP Biomedical) was added and the cells were allowed to recover at 30° C. for 1-2 hr. The cells were centrifuged, resuspended in 100 uL 1M sorbitol and plated on selective media lacking leucine and containing 2% galactose. The resulting yeast colonies were incubated at various temperatures ranging from 22 to 37 degrees Celsius for 7-10 days. I-CreI and meganucleases derived from it have maximal activity at or above 37 degrees Celsius. Screening was performed at a range of temperatures from 22 to 37 degrees in order to observe increases in activity at lower temperatures which are relevant to certain biological systems (eg. plant cells, plant cell cultures, etc). At that time the red/white sectoring phenotype, indicative of meganuclease activity was observed. Colonies with increased white sectoring over the parental meganuclease (indicating colonies expressing a meganuclease with increased meganuclease activity), also referred to as “hits” and sometimes completely white, were isolated for further analysis. […]

[2] = biological target: T2, ZM6.3(G5) (artificial); experiment: cell_activity; yeast 37 C; 28 C: 0
T2 chain: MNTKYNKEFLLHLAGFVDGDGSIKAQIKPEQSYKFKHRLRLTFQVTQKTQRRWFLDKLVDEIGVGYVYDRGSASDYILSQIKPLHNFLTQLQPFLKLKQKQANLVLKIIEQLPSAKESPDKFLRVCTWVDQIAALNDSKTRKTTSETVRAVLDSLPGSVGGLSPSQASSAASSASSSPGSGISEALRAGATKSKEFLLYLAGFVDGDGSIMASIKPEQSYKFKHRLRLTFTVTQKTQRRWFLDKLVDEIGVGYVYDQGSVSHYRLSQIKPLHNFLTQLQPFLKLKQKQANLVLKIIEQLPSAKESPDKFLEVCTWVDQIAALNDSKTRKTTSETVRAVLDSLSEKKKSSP
Experimental: as §1

[3] = biological target: T3, ZM6.3 (artificial); experiment: cell_activity; yeast 37 C; 28 C: 0
T3 chain: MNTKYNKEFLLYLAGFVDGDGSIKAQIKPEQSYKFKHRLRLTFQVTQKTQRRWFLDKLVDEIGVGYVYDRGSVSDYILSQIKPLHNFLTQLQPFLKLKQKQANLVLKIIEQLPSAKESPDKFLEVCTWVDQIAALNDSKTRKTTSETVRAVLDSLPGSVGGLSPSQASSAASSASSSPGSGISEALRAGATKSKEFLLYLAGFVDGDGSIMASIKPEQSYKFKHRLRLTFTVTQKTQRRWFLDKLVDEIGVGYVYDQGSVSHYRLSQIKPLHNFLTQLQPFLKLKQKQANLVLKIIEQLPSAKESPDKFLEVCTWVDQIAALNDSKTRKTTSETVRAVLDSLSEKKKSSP
Experimental: as §1

[4] = biological target: T4, ZM6.3(G6) (artificial); experiment: cell_activity; yeast 37 C; 28 C: 4
T4 chain: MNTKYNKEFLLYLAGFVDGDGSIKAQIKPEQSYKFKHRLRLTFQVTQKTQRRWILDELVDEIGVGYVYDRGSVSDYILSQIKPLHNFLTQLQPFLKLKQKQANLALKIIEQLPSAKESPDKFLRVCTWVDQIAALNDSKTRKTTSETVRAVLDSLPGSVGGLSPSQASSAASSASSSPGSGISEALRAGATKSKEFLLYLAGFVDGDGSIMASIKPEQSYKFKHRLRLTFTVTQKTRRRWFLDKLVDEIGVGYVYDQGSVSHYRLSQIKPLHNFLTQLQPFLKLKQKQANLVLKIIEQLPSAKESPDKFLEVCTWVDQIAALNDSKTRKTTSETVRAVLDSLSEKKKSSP
Experimental: (§2) A 3 mL culture of selective media (MP Biomedical) was inoculated with a single colony of the yeast screening strain and grown at 30° C. overnight. On the following day, a 50 ml YPD culture (MP Biomedical) was started with 2 ml of the overnight culture and grown at 30° C. overnight. On the following day, the cells were harvested by centrifugation at 4000 rpm. The cells were resuspended in 100 ml ice cold water and centrifuged again. The cells were then washed in 1.2 M sorbitol, followed by treatment with 2 ml of 10 mM Tris pH 8.0, 1 mM EDTA, 100 mM Lithium acetate, 10 mM DTT, 0.6M sorbitol for 30 minutes at 30° C. with shaking. The cells were recovered by centrifugation, washed in 40 ml 1.2M sorbitol and finally resuspended in 250 microliters of 1.2M sorbitol. 50 microliter aliquots were transferred to test tubes on ice. Up to 5 microliters of DNA (100-500 nanograms) were added. The suspension was transferred to a 0.2 cm electroporation cuvette, on ice. Electroporation was performed with a pulse charge at 1.5 kV, 200 ohms, 25 microF (pulse time of 5 milliseconds). 1 mL YPD media (MP Biomedical) was added and the cells were allowed to recover at 30° C. for 1-2 hr. The cells were centrifuged, resuspended in 100 uL 1M sorbitol and plated on selective media lacking leucine and containing 2% galactose. The resulting yeast colonies were incubated at various temperatures ranging from 22 to 37 degrees Celsius for 7-10 days. I-CreI and meganucleases derived from it have maximal activity at or above 37 degrees Celsius. Screening was performed at a range of temperatures from 22 to 37 degrees in order to observe increases in activity at lower temperatures which are relevant to certain biological systems (eg. plant cells, plant cell cultures, etc). At that time the red/white sectoring phenotype, indicative of meganuclease activity was observed. Colonies with increased white sectoring over the parental meganuclease (indicating colonies expressing a meganuclease with increased meganuclease activity), also referred to as “hits” and sometimes completely white, were isolated for further analysis.
(§3) A total of 15 Zm6.3 variants with increased activity were confirmed in the yeast system (as described in Example 6). Increased activity was observed across a range of temperatures: 28 degrees Celsius, 30 degrees Celsius and 37 degrees Celsius, as shown in Table 15.

[5] = biological target: T5, ZM6.3(H5) (artificial); experiment: cell_activity; yeast 37 C; 28 C: 4
T5 chain: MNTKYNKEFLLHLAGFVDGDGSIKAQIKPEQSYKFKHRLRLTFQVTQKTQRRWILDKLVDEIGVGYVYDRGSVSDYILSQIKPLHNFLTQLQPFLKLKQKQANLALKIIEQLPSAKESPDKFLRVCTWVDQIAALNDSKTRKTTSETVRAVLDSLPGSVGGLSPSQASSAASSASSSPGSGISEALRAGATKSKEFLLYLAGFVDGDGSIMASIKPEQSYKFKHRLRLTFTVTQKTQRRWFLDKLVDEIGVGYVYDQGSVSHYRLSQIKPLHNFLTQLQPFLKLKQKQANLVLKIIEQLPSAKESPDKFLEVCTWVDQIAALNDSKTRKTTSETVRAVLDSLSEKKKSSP
Experimental: as §2, §3

B1: ZM6.3 recognition site (dsDNA)
DNA 1: CAGGCTCTCGTAAATGCGCCTG
DNA 2: CAGGCGCATTTACGAGAGCCTG
For B1, which activity [1] is on record?
Its activity is 2 score 0-4.

And the activity [2]?
Its activity is 2 score 0-4.

What about the activity [3] of the same binder?
Its activity is 2 score 0-4.

And the activity [4]?
Its activity is 4 score 0-4.

And the activity [5]?
Its activity is 4 score 0-4.
